The record followed here is patent US20230414590.

The data set deals with T1, iron-sulfur cluster assembly (ISCU) protein, Q9H1K1.
T1 chain: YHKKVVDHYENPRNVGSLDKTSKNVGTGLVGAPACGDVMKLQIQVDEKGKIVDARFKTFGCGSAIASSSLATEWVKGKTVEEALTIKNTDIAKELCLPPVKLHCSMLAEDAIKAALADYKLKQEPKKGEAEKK

B1: glutathione S-transferase P (GSTP1) (protein)
chain: PPYTVVYFPVRGRCAALRMLLADQGQSWKEEVVTVETWQEGSLKASCLYGQLPKFQDGDLTLYQSNTILRHLGRTLGLYGKDQQEAALVDMVNDGVEDLRCKYISLIYTNYEAGKDDYVKALPGQLKPFETLLSQNQGGKTFIVGDQISFADYNLLDLLLIHEVLAPGCLDAFPLLSAYVGRLSARPKLKAFLASPEYVNLPINGNGKQ
With B1, the “ISCU glutathionylation (α-GSH immunoblot after α-ISCU immunoprecipitation) in PAECs with GSTP1 knockdown” value was “with GSTP1 knockdown, α-ISCU immunoprecipitation revealed a concomitant reduction of GSTP1 pulldown and glutathionylated ISCU in favor of non-glutathionylated ISCU”.
